According to PMC8471396:
Several values for one entry are separate records, joined by “and”; a condition that tells them apart may be missing. Equal entries are not always repeated.

How the values were obtained:
[1] = biological target: succinate-acetate permease (SatP) from Citrobacter koseri ATCC BAA-895 (Citrobacter koseri ATCC BAA-895); experiment: cross-linking; SatP in DOPC/DOPG liposomes, 10 uM protein in 20 mM HEPES pH 7.3; 0.5 mM BS3 (DMSO as control), room temperature, 1 h; 4-20% gradient SDS-PAGE
[2] = biological target: succinate-acetate permease (SatP) from Citrobacter koseri ATCC BAA-895 (Citrobacter koseri ATCC BAA-895); experiment: SDS-PAGE and Western blot of oligomer bands; SatP in SMA native nanodiscs from E. coli membranes, after the nickel affinity column; no cross-linker; anti-His Western blot

With “succinate-acetate permease (SatP) from Citrobacter koseri ATCC BAA-895 (natural protein)” the stoichiometry N [1] was 6 and 5 and 4 and the stoichiometry N [2] was 6.
